Common to all, as to test: SPR
Background: Surface plasmon resonance follows binding to a sensor surface in real time, without labels.

The target in test [1] is FcγRIIIa-158V-CHO^WT (soluble FcγRIIIa, allotype 158V, from wild-type CHO) (human).
Test [2] concerns the target FcγRIIIa-158V-Hybrid (human).
Test [3] deals with FcγRIIIa-158V-G2FS(2-3) (human).
The target of test [4] is FcγRIIIa-158V-Oligomannose (human).
Test [5] concerns the target biotinylated, recombinant, human FcγRIIIa-158V from SinoBiological (human).
Test [6] deals with FcγRIIIa-158F-Monoantennae (human) (UniProt P08637).
Sequence of FcγRIIIa-158F-Monoantennae (human) (P08637 17-208): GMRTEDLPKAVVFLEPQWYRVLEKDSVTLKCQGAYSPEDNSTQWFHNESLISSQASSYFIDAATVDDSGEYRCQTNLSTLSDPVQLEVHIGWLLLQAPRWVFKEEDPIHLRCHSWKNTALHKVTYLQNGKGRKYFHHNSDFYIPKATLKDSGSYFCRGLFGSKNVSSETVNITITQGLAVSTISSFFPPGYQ
The target of test [7] is FcγRIIIa-158F-G2FS(2-6) (human) (UniProt P08637).
Sequence of FcγRIIIa-158F-G2FS(2-6) (human) (P08637 17-208): as above
Test [8] concerns the target FcγRIIIa-158V-HEK^WT (human).
In test [9] the target is FcγRIIIa-158F-HEK^WT (human) (UniProt P08637).
Sequence of FcγRIIIa-158F-HEK^WT (human) (P08637 17-208): as above
Test [10] addresses FcγRIIIa-158V-G2FS(2-6) (human).
The target of test [11] is biotinylated, recombinant, human FcγRIIIa-158F from SinoBiological (human) (UniProt P08637).
Sequence of biotinylated, recombinant, human FcγRIIIa-158F from SinoBiological (human) (P08637 17-208): as above
Test [12] deals with FcγRIIIa-158F-G2FS(2-3) (human) (UniProt P08637).
Sequence of FcγRIIIa-158F-G2FS(2-3) (human) (P08637 17-208): as above
Test [13] has as its target FcγRIIIa-158F-Afucosylated (human) (UniProt P08637).
Test [14] addresses FcγRIIIa-158V-Afucosylated (human).
Test [15] deals with FcγRIIIa-158F-Hybrid (human) (UniProt P08637).
Sequence of FcγRIIIa-158F-Hybrid (human) (P08637 17-208): as above
The target of test [16] is FcγRIIIa-158V-Monoantennae (human).
For test [17], the target named is FcγRIIIa-158F-CHO^WT (soluble FcγRIIIa, allotype 158F, from wild-type CHO) (human) (UniProt P08637).
Sequence of FcγRIIIa-158F-CHO^WT (soluble FcγRIIIa, allotype 158F, from wild-type CHO) (human) (P08637 17-208): as above

Sequence of FcγRIIIa-158F-Afucosylated (human) (P08637 17-208): as above

Regarding IgG1-G2FS(2-3) (mAb SO57) (antibody), the Kd was 288 nM in test [1]; 302 nM in [2]; 385 nM in test [3]; 143 nM in test [4]; 275 nM in test [5]; 1340 nM in test [6]. The Kd in test [7] was determined as 832 nM; in test [8] it was 259 nM; in [9], 1190 nM; in [10] it was 259 nM; in test [11], 953 nM; in [12], 1330 nM. Also, the Kd in test [13] came out at 1220 nM; in [14], 275 nM; in [15], 1220 nM; in test [16], 312 nM; in test [17], 1880 nM.

As usually defined, the Kd is the equilibrium constant for the complex coming apart.

The record behind these values is paper PMC9524020.
